Reference: PMC6208734, “Epitope determines efficacy of therapeutic anti-Tau antibodies in a functional assay with human Alzheimer Tau” (Acta Neuropathologica, 2018)

target: T1, monomeric recombinant Tau (2N4R) (Homo sapiens (Human)., UniProt P10636-8); experiment: SPR; monomeric recombinant Tau and full-length IgG; BIAcore T200, 25 °C; extrinsic affinity; who was immobilised is not told for the monomer; details: both partners purified
T1 construct: Tau (microtubule-associated protein Tau), isoform 2N4R, 441 amino acids; gene synthesized by DNA2.0; also called Tau monomer; monomeric Tau; source: Expi293 expression system, purified from culture medium (Ni Sepharose Excel, TEV cleavage, second Ni Sepharose Excel); not shown: 10His-TEV, N-terminal, cleaved
T1 sequence (P10636 other isoform, or with tags, fused parts or gaps): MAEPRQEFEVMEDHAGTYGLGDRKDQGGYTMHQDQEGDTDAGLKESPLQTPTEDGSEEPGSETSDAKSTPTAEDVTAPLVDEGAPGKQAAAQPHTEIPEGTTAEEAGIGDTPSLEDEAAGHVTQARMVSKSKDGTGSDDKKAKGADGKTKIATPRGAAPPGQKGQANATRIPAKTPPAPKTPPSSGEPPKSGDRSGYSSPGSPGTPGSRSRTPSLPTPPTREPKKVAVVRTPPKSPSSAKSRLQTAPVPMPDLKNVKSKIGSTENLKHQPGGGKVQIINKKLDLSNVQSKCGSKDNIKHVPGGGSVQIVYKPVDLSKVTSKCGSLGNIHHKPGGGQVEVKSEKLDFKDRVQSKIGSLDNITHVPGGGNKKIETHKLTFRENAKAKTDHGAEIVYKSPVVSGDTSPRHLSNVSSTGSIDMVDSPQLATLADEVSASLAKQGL

Kd [nM]	koff [s⁻¹]	kon [M⁻¹ s⁻¹]	Binder
0.16	5.2e-05	360000	antibody A (antibody, V domains shown, heavy chain V-region; mouse gamma-1 IgG heavy chain constant region (from the expression vector); light chain V-region; mouse kappa light chain constant region (from the expression vector); source: CHOSXE cell line, electroporated, purified (Protein A, gel filtration); copies: 2 + 2) VH: EVHLVESGGALVKPGGSLKLSCAASGFSFSKYGMSWVRQTPDKRLEWVATISSSGSRTYYPDSVKGQFTISRDNAKNTLYLQMSSLKSEDTAMYYCSISWDGAMDYWGQGTSVTVSS VL: DVLMTQTPLSLPVSLGDQASISCKSSQSIVHSNGNTYLEWYLQKPGQSPKLLVYKVSNRFSGVPDRFSGSGSGTDFTLKISRVEAEDLGTYYCFQGSLVPWAFGGGTKLEIK
117	0.0205	180000	antibody F (antibody, V domains shown, heavy chain V-region; mouse gamma-1 IgG heavy chain constant region (from the expression vector); light chain V-region; mouse kappa light chain constant region (from the expression vector); source: CHOSXE cell line, electroporated, purified (Protein A, gel filtration); copies: 2 + 2) VH: EVQLVQSGAEVKKPGESLKISCKGSGYTFSNYWIEWVRQMPGKGLEWMGEILPGSDSIKYEKNFKGQVTISADKSISTAYLQWSSLKASDTAMYYCARRGNYVDDWGQGTLVTVSS VL: EIVLTQSPGTLSLSPGERATLSCRSSQSLVHSNQNTYLHWYQQKPGQAPRLLIYKVDNRFSGIPDRFSGSGSGTDFTLTISRLEPEDFAVYYCSQSTLVPLTFGGGTKVEIK
20.7	0.000953	50000	antibody B (antibody, V domains shown, heavy chain V-region; mouse gamma-1 IgG heavy chain constant region (from the expression vector); light chain V-region; mouse kappa light chain constant region (from the expression vector); source: CHOSXE cell line, electroporated, purified (Protein A, gel filtration); copies: 2 + 2) VH: EVKVEESGGGLVQPGGSMKLSCVVSGFTFSNYWVNWVRQSPEKGLEWVAQIRLKSDNYATHYEESVKGRFTISRDDSKSSVYLQMNNLRAEDSGIYYCTNWEDYWGQGTTLTVSS VL: DIVLTQSPASLAVSLGQRATISCRASQSVSTSRYSYIHWYQQKPGQPPKLLIKYASNLESGVPARFSGSGSGTDFTLNIHPLEEEDAATYYCHHSWEIPLTFGAGTKLELK
